Values quoted from earlier work in article PMC11426987.
pKd: −log10 of the molar value. Read-outs that look alike come from different tables or passages of the source.

Key:
protein S (Homo sapiens) [1] = target: protein S (Homo sapiens) (UniProt P07225)
protein S (Homo sapiens) [2] = target: protein S (Homo sapiens) (UniProt P07225); remark: listed apart in the source

UniProt P07225, sequence (P07225 42-676): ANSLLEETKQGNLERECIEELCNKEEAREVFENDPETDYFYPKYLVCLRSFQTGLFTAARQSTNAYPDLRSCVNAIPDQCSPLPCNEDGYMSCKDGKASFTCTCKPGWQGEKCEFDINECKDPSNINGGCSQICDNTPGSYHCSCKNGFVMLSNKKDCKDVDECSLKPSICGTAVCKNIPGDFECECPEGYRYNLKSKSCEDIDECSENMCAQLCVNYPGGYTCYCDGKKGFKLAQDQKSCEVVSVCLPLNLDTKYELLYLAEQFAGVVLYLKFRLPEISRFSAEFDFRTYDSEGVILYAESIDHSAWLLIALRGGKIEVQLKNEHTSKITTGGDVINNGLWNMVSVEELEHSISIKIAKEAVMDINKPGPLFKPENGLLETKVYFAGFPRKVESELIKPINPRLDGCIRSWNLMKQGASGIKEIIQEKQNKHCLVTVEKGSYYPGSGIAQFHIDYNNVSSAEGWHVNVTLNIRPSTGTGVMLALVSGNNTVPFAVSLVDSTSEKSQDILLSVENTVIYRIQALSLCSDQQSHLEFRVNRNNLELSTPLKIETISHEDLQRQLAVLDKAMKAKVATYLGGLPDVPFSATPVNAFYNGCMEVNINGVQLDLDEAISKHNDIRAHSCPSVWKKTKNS

Substance | pKd (protein S (Homo sapiens) [1]) | pKd (protein S (Homo sapiens) [2])
TFPI (from UniProt P10646) | < 6.00 | –
TFPIα (from UniProt P10646) | – | 7.70
